Assay results taken from paper PMC9293640, “Insights into the structural dynamics and helicase-catalyzed unfolding of plant RNA G-quadruplexes”.

What was measured:
DExH1 = molecular target: T1, DExH1 (Arabidopsis thaliana, UniProt F4ILR7 1-995); experiment: MST; preferred substrate (3' tail rG4); EC50 only in figure; MST: 20 nM FAM-RNA, buffer not in material; pull-down: 20 mM Tris-HCl pH 7.5, 300 mM KCl, 0.1% Tween-20, 2 mM EDTA, RNase inhibitor, 4 °C 4 h; conditions: protein: recombinant; tags: 6xHis-SUMO removed; label: 3'-FAM; G4, 3' ss tail 15 nt
T1 sequence: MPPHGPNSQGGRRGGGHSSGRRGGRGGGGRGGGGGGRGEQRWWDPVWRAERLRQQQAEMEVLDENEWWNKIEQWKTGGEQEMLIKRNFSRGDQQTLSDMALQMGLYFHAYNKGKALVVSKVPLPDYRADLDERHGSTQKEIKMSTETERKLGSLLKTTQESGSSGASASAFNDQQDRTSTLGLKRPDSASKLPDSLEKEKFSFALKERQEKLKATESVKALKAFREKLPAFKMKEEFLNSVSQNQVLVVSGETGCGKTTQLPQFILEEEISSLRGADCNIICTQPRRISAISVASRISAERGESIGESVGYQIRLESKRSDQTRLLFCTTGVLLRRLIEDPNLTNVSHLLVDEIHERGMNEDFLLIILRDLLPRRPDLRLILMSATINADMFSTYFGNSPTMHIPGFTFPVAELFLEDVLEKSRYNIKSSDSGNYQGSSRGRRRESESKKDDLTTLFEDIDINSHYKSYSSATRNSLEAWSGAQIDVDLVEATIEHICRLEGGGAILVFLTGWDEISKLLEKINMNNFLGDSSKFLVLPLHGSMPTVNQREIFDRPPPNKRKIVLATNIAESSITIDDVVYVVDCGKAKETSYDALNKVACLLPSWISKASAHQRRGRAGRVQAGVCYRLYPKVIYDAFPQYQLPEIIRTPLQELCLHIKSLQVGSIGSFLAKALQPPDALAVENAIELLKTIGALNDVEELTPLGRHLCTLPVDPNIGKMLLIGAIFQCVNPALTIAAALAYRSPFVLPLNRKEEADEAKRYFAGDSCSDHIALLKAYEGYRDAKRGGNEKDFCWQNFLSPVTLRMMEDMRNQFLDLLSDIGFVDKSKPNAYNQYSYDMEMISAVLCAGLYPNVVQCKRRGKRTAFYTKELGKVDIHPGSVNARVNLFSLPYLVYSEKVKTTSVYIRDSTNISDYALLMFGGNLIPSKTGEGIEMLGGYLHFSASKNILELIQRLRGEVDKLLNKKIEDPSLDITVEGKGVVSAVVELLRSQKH

DExH15 = molecular target: T2, DExH15 (Arabidopsis thaliana, UniProt B9DFG3 1-1171); experiment: as above; conditions: protein: recombinant; tags: 6xHis-SUMO removed; label: 3'-FAM; G4, 3' ss tail 15 nt
T2 sequence: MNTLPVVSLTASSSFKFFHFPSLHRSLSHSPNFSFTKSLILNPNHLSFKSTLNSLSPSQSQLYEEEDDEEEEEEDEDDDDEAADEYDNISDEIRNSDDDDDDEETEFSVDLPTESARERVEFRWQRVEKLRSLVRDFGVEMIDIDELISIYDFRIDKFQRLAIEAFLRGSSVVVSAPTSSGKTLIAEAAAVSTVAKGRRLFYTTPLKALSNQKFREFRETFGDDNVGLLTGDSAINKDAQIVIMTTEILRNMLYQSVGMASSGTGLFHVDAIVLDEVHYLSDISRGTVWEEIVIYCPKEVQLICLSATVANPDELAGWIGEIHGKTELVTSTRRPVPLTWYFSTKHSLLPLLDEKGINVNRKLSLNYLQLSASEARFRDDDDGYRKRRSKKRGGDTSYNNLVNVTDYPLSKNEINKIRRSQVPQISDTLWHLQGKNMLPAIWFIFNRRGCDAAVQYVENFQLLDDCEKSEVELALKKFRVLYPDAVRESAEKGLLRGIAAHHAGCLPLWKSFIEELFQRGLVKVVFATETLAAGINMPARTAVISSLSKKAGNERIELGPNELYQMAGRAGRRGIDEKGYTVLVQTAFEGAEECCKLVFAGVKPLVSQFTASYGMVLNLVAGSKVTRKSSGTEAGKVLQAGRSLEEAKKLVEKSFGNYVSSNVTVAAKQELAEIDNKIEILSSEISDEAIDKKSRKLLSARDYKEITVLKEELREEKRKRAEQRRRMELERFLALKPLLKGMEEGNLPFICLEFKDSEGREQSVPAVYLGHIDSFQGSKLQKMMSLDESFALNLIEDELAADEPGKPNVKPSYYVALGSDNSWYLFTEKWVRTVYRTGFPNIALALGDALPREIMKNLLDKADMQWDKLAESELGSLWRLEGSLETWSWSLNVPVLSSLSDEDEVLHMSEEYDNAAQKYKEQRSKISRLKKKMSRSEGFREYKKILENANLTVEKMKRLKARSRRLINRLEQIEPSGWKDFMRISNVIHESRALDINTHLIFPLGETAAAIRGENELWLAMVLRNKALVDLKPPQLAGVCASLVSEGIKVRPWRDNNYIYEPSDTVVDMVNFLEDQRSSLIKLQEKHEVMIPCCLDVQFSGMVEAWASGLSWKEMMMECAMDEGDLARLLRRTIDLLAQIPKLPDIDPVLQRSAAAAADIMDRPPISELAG

B1: G4S (3' tail rG4) (structured_RNA)
RNA: GGGAGGGAAGGGGAAGGGGUUUUUUUUUUUUUUU
- binding result (DExH1): binds
- binding result (DExH15): binds
